The values that follow are results of earlier work, collected in paper PMC6611495.

In this data set the target is protective antigen (PA) (Bacillus anthracis) (UniProt P13423).

In general, Kd refers to the free concentration of one partner at which half of the binding sites on the other are occupied at equilibrium, for simple one-to-one binding. With rCMG2 (from UniProt P58335), the dissociation constant Kd is 0.4 nM.
